Here are results for 9 molecules from paper PMC12042621 (Structure (London, England : 1993), 2025).

B1: LaG19_(S102R) (VHH)
VHH: QVQLVESGGGLVQAGGSLRLSCAASGPTGAMAWFRQAPGKEREFVGGISRSGTDTYYVDSVKGRFTIDRDNAKNTVYLQMNSLKPEDTAVYYCAARRRQILFTSRTDYEFWGQGTQVTVSG
B2: LaG43 (VHH)
VHH: DVQLVESGGGLVQPGGSLRLSCEASGGAFSTVAMGWFRQAPGKEREFVGAITWTAGSTYYADSAKGRFTISRDNAKNTVHLQMNSLKPEDTAVYYCAQRVRGFFGPLRTTPSWYEYWGQGTQVTVSG
B3: LaG16 (VHH)
VHH: QVQLVESGGRLVQAGDSLRLSCAASGRTFSTSAMAWFRQAPGREREFVAAITWTVGNTILGDSVKGRFTISRDRAKNTVDLQMDNLEPEDTAVYYCSARSRGYVLSVLRSVDSYDYWGQGTQVTVSG
B4: LaG24_(Q68K) (VHH)
VHH: DVQLVESGGGLVQPGGSLRLSCAASGEIASIIAIGWYRQAPGKQRESVALITRSGMITYGDSAKGRFTISRDDAKNTVYLHMDDLVPEDTAVYYCNAKKVSFGDYWGQGTQVTVSG
B5: LaG24_(H85Q) (VHH)
VHH: DVQLVESGGGLVQPGGSLRLSCAASGEIASIIAIGWYRQAPGKQRESVALITRSGMITYGDSAQGRFTISRDDAKNTVYLQMDDLVPEDTAVYYCNAKKVSFGDYWGQGTQVTVSG
B6: LaG21 (VHH)
VHH: QVQLVESGGGLVQAGGSLRLSCAASGPTGAMAWFRQAPGMEREFVGGISGSETDTYYADFVKGRLTVDRDNVKNTVDLQMNSLKPEDTAVYYCAARRRVTLFTSRADYDFWGQGTQVTVSG
B7: LaG41 (VHH)
VHH: DVQLVESGGGLVQAGGSLRLSCAASGPTGAMAWFRQAPGKEREFVGGISGSETDTYYVDSVKGRFTVDRDNVKNTVYLQMNSLKPEDTAVYYCAARRRITLFTSRTDYDFWGRGTQVTVGL
B8: LaG21_(L69F) (VHH)
VHH: QVQLVESGGGLVQAGGSLRLSCAASGPTGAMAWFRQAPGMEREFVGGISGSETDTYYADFVKGRFTVDRDNVKNTVDLQMNSLKPEDTAVYYCAARRRVTLFTSRADYDFWGQGTQVTVSG
B9: S1–8 (VHH)
VHH: QVQLVESGGGLVQAGGSLRLSCAASGRVLSSYVMGWFRQAPGKEREFVAAIRWNGGSTFYADSVKGRLTISRDNAKNTVYLQMNSLKPEDTAAYYCAASPRTMYDATYYYSRTSYDYWGQGTQVTVS

In one assay the target is Green Fluorescent Protein (Aequorea victoria, laboratory variant …). The experiment in a line: SPR. A general note: SPR reads the build-up and loss of mass on a sensor chip optically.
With B1, binding was put at a Kd of 0.6 nM.

On to B2, for which binding was characterised by a dissociation constant (Kd) of 11 nM. This Kd is about 18-fold higher than that of the molecule before.

B3: the dissociation constant (Kd) was 0.7 nM.

Take B4: the “fold increase in affinity over wildtype LaG24” value was ~10 fold.

B5: the “fold increase in affinity over wildtype LaG24” value is > 10 fold.

The molecule B6 came in with a dissociation constant Kd of 7 nM. This counts as single-digit nanomolar.

The molecule B7 gave a Kd of 0.9 nM.

B8 yielded an equilibrium dissociation constant (Kd) of 0.7 nM.

For a further assay, the target named is SARS-CoV-2 spike S1 (SARS-CoV-2, wild type (Wuhan-Hu-1), UniProt P0DTC2). The assay can be described thus: SPR.
In turn, B9 gave a dissociation constant Kd of 3.8 nM.

What is called Kd is the concentration at which binding is half-saturated. High values mean weaker binding, low ones tighter binding.
